Source: US12447213B2, “Modulation of novel immune checkpoint targets” (The Brigham and Women's Hospital, Inc., priority 2016, dated 2025)

B1: CD166: recombinant CD166; transmembrane glycoprotein (type I) encoded by the ALCAM gene, novel ligand of ILT-3 (protein, UniProt Q13740 28-583, looked up)
CD166 antigen: WYTVNSAYGDTIIIPCRLDVPQNLMFGKWKYEKPDGSPVFIAFRSSTKKSVQYDDVPEYKDRLNLSENYTLSISNARISDEKRFVCMLVTEDNVFEAPTIVKVFKQPSKPEIVSKALFLETEQLKKLGDCISEDSYPDGNITWYRNGKVLHPLEGAVVIIFKKEMDPVTQLYTMTSTLEYKTTKADIQMPFTCSVTYYGPSGQKTIHSEQAVFDIYYPTEQVTIQVLPPKNAIKEGDNITLKCLGNGNPPPEEFLFYLPGQPEGIRSSNTYTLTDVRRNATGDYKCSLIDKKSMIASTAITVHYLDLSLNPSGEVTRQIGDALPVSCTISASRNATVVWMKDNIRLRSSPSFSSLHYQDAGNYVCETALQEVEGLKKRESLTLIVEGKPQIKMTKKTDPSGLSKTIICHVEGFPKPAIQWTITGSGSVINQTEESPYINGRYYSKIIISPEENVTLTCTAENQLERTVNSLNVSAISIPEHDEADEISDENREKVNDQAKLIVGIVVGLLLAALVAGVVYWLYMKKSKTASKHVNKDLGNMEENKKLEENNHKTEA

Key:
[1] = vaccination alone or combined with a low dose of estramustine; cited from earlier work
pathogenic Th17 cells = experiment: Pathogenic Th17 differentiation in the presence of plate bound recombinant CD166, cytokine production by FACS; assay type: cell-based, mouse; conditions: 10 ug/ml, Gp49 dependent, WT or Gp49b KO
Experimental: FIG. 49. Plate-bound CD166 inhibits GM-CSF and enhances IL10 production from pathogenic Th17 cells in a Gp49 dependent way. Naïve T cells from spleen of WT or Gp49b KO mouse were differentiated into pathogenic in vitro with anti-CD3/CD28 Dynabeads in the presence of plate bound recombinant CD166 (10 ug/ml) or BSA (10 ug/ml) as control. Cytokine production from Th17 cells were measured by FACS on day 4.
(§1) To investigate the role of CD166, CD4+CD44^loCD62L^hi naïve CD4 T cells were sorted by FACS and cultured in vitro with plate-bound anti-CD3 (2 ug/ml) and anti-CD28 (2 ug/ml) plus the following polarizing cytokines: IL12 (20 ng/ml) for Th1 cells; IL4 (20 ng/ml) for Th2 cells; TGFb (5 ng/ml) for iTreg cells; IL27 (25 ng/ml) for Tr1 cells; TGFb (2 ng/ml) and IL6 (25 ng/ml) for non-pathogenic Th17; TGFb (2 ng/ml), IL6 (25 ng/ml) and IL23 (20 ng/ml), or, […] (25 ng/ml) and IL23 (20 ng/ml) for pathogenic Th17. Expression of CD166 was measured by FACS on day 3. […] (FIG. 48). To determine the effect of plate-bound CD166, naïve T cells from spleen of WT or Gp49b KO mouse were differentiated into pathogenic in vitro with anti-CD3/CD28 Dynabeads in the presence of plate bound recombinant CD166 (10 ug/ml) or BSA (10 ug/ml) as control. Cytokine production from Th17 cells were measured by FACS on day 4. […] Next, the role of exogenous CD166 was assayed. […] Stained cells were analyzed by FACS.

Th17 cells = experiment: Binding of recombinant His-tagged CD166 to Th17 cells (FACS); set-up: species or system mice; conditions: exogenous, 10 ug/ml; HBSS
Experimental: FIG. 50. Exogenous CD166 binds weakly to Th17 cells (in HBSS). In vitro differentiated pathogenic and non-pathogenic Th17 cells were incubated with recombinant His-tagged CD166 (10 ug/ml) in indicated buffer at room temperature for 30 min, washed twice, and then incubated with anti-His antibody for 10 min. Stained cells were analyzed by FACS.
as §1

Row | Molecule | patients with a ≥50% decrease in serum prostate specific antigen (PSA) [1] [%] | GM-CSF production from pathogenic Th17 cells (pathogenic Th17 cells) | IL10 production from pathogenic Th17 cells (pathogenic Th17 cells) | binding to Th17 cells (Th17 cells)
1 | C[C@]12CC[C@@H]3c4ccc(OC(=O)N(CCCl)CCCl)cc4CC[C@H]3[C@@H]1CC[C@@H]2O [estramustine] | 54 | – | – | –
2 | B1 | – | inhibits | enhances | binds weakly
